B1: anti-SARS-CoV2-14 IgG (lambda-VL-kappa-CL hybrid light chain) (antibody, V domains shown)
VH: EVQLQQSGPGLVKPSQTLSLTCAISGDSVSSNSAAWNWIRQSPSRGLEWLGRTYYRSKWYNDYAVSVKSRITINPDTSKNQFSLQLNSVTPEDTAVYYCAREEQQLVHDYYYYGMDVWGQGTMVTVSS
VL: QAVVTQPASVSGSPGQSITISCTGTSSDIGAYNYISWYQQHPGKAPKLIIYEVSNRPSGISYRFSGSKSGNTASLTISGLQAEDEANYYCSSYAGSISFGGGTKVTVL
B2: anti-SARS-CoV2-14 IgG (full lambda light chain) (antibody, V domains shown)
VH: EVQLQQSGPGLVKPSQTLSLTCAISGDSVSSNSAAWNWIRQSPSRGLEWLGRTYYRSKWYNDYAVSVKSRITINPDTSKNQFSLQLNSVTPEDTAVYYCAREEQQLVHDYYYYGMDVWGQGTMVTVSS
VL: QAVVTQPASVSGSPGQSITISCTGTSSDIGAYNYISWYQQHPGKAPKLIIYEVSNRPSGISYRFSGSKSGNTASLTISGLQAEDEANYYCSSYAGSISFGGGTKVTVL

Tests used:
Details in all cases: remark: other sources report otherwise
[1] = target: T1, recombinant Spike protein (Sino Biologicals Cat #40589-V08B1) (SARS-CoV-2), P0DTC2; assay: BLI (Octet), His-tagged S on Ni-NTA sensor, avidity
[2] = target: recombinant SARS-CoV-2 Receptor Binding Domain (RBD) with a his tag (ATUM, Cat. 65639.1.a) (SARS-CoV-2), P0DTC2; assay: ELISA on coated RBD-his
[3] = target: T1, recombinant Spike protein (Sino …); assay: ELISA on coated recombinant spike
[4] = target: T2, wild type RBD protein (generated as in Ku et al. 2021) (SARS-CoV-2), P0DTC2; assay: BLI competition, RBD on sensor, antibody then ACE2; competitor ACE2
[5] = target: T2, wild type RBD protein (generated as in …); assay: binding KD on RBD protein, generally as Example 4

Binder | Kd [1] [nM] | koff [1] [s⁻¹] | kon [1] [M⁻¹ s⁻¹] | EC50 [2] [nM] | EC50 [3] [nM] | EC50 [4] [nM] | Kd [5] [nM]
B1 | 1.39 | 0.0013 | 933000 | > 60 | 6.22 | – | –
B2 | – | – | – | – | – | 18.6 | 0.82
